± gives the uncertainty stated by the source.
Experiment: amyloid nucleation score (Sup35N fusion, yeast selection) (log enrichment); library NNK2; higher = more nucleation; inactive = no reads after selection
Procedure, shortened: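 The nucleation score, computed with DiMSum, is the log enrichment of output over input reads, centred on the mode score of non-aggregating sequences. Sequences with under 100 input reads were dropped. Reads were generated by Illumina sequencing of plasmid inserts from psi-negative yeast with Sup35N fused to peptides of 20 random codons, induced with 100 μM copper sulfate for 24 hours and grown 7 days at 30°C on medium lacking adenine and uracil.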

Row | Substance | amyloid nucleation score
1 | DGVFRCKKRSSNFSDKSVCM | 0.641 ± 0.74
2 | CWFSVYNTLVGCNLVPTKGD | 6.666 ± 0.065
3 | DQFRHLVTGSNNTIIKYSGV | inactive
4 | SFSRSSAYVVHVLGYLEFRT | -0.004 ± 0.65
5 | GLCKTVSWRNSSLEKDLFGR | -0.813 ± 0.78
6 | SYVCRYITVPGFDTN | 4.76 ± 0.08
7 | THNLAEGQGKDCVQSLDRMG | 0.22 ± 0.38
8 | VICVLSYADCSKLGWGHSLT | 8.868 ± 0.043
9 | INHDFQTHVL | 0.154 ± 0.65
10 | WVYRLMLTMLR | -0.055 ± 0.41
11 | RQARSCIVGDGSWRGCLIKV | 1.11 ± 0.26
12 | VIGRCDSL | inactive
13 | NTGFTLMGCWPMYYCWSFSW | -0.073 ± 1
14 | WCCLYDYFVDTGVLFIQDGS | -0.186 ± 0.2
15 | NIRVNDCVRHPSGDVQARVS | -0.014 ± 0.35
16 | SRGSSMMQIYFL | 5.995 ± 0.059
17 | VGTTNQYDEPTTGLSHC | 0.953 ± 0.32
18 | FYSGKRARMGGEGGEKTPRS | -1.2 ± 0.48
19 | CSFGPIVAD | -1.12 ± 0.63
20 | FGVHVRCSEDDMAFALDLD | 0.155 ± 0.28
21 | QAWYRLVCIASYLFYEGFNV | 0.193 ± 0.13
22 | GSEECTLTDCRGSRQDILKR | 0.078 ± 0.77
23 | RTDVFWNRMQRDSLFKPNAT | 0.192 ± 0.44

Row | Substance | amyloid nucleation score
24 | FLYTCF | 0.509 ± 0.25
25 | LVGDLVVGYGMCRKGVVR | 5.03 ± 0.079
26 | VVQFSNGDLLILTGCPNTSK | 0.449 ± 0.8
27 | WCNALFDWMLVAVCGGYYVY | -0.502 ± 0.37
28 | VSLKFLQGGAKDLRWSCGGE | 1.78 ± 0.23
29 | RQEFNCIASCRF | 2.12 ± 0.091
30 | IDLWWSATHVTLLLSAPGIY | -1.09 ± 0.42
31 | MLRNWLCRY | 2.02 ± 0.42
32 | PLSGWYQYIRDGVLSVWLSV | 0.713 ± 0.74
33 | FLSSSGRFSIVYSLFYEWIP | -0.674 ± 0.76
34 | MEKARTGGGSVTHDGKCARW | 0.649 ± 0.22
35 | VGWKTGDRPSEMSSSWDLNG | -0.093 ± 0.37
36 | LYNCVRYSSYLFNVVPCRGG | inactive
37 | EMLYTSFILSLWNNLDFILS | -0.452 ± 0.63
38 | CFLGLYGDIASIFNQ | -0.889 ± 0.45
39 | TPSECRCWEEFHGWTHLLRL | 0.461 ± 0.48
40 | IGARFKFNQWTSYYIQRF | inactive
41 | KLGFWVGSWLSSRSVDCSCM | 1.33 ± 0.35
42 | HKFIPAVVSCMQGNMKNYWS | -0.166 ± 0.5
43 | NIRSYPVNYKHHFT | 0.19 ± 0.27
44 | PGYPVTFLRRDAYAVREFEF | -0.1 ± 1
45 | FEGFNAMVSGLRYSSMGCFH | 0.334 ± 0.25
46 | PGPAKVANCGWCTYTGGTSH | 1.12 ± 0.45

Row | Substance | amyloid nucleation score
47 | GLKTMLY | -0.227 ± 0.27
48 | GVGRWIQCQDSWNTNRPSQP | 1.52 ± 0.27
49 | TQLSV | -0.046 ± 1
50 | SRNLGGNYGLGGWCNEEFRR | 0.185 ± 0.65
51 | VIPSSILLEGYVLLYACYLP | -0.217 ± 0.44
52 | MKTGLGVFRSFDLVVYNRR | inactive
53 | KSINSFYKRIDVVWGMRSQS | -0.984 ± 0.33
54 | FFEFKDNSSWFK | 3.3 ± 0.052
55 | TKTILRILSQFIYDSPLLEM | -0.19 ± 1.1
56 | WRMGTPNIRMLC | -0.318 ± 0.38
57 | IDSADVSIVRCKTQVRRIMR | 5.62 ± 0.063
58 | FVEITRG | -0.196 ± 1.1
59 | LYTLTENRLRLYMIYAGLRW | -0.362 ± 0.5
60 | SSKRVMKYRCDRWMADTCRK | 0.201 ± 0.8
61 | QAHATFSILRTISAVFSPMQ | 5.973 ± 0.057
62 | VPRKILFCLLACCRMRQACS | 0.67 ± 0.33
63 | LIQFDTISSLYP | -0.271 ± 0.63
64 | PSHSRMRIMNSTYSSFLLKV | 0.214 ± 0.18
65 | LRREGTYIRPCKDMYFGDSC | inactive
66 | VSASEEVPAFCCVTVAQ | -0.195 ± 0.61
67 | GDRDVI | 1.31 ± 0.38
68 | STRTSADRSFIIMVWCNIDL | 3.62 ± 0.081
69 | GYGRLIWLGACRL | 1.18 ± 0.48

Reference: the supplement of paper PMC12042874
